One protein from publication PMC8853325 can be followed below.

Substrate in series [1]: CC(=O)N[C@H]1[C@@H](OP(=O)(O)OP(=O)(O)OCCCCCCCCCCCOc2ccccc2)O[C@H](CO)[C@@H](O)[C@@H]1O[C@H]1O[C@H](C)[C@@H](O)[C@H](O)[C@@H]1O
The series can be described thus: cells, lysate or membranes. Conditions: donor GDP-D-[^3H]Rha, 5 mM MnCl2, Tris pH 9, 37 °C.

Substrate in series [2]: C[C@H]1O[C@H](OCc2ccccc2)[C@@H](O)[C@@H](O)[C@@H]1O
Kind of series: cells, lysate or membranes. The note with it: donor GDP-D-[^3H]Rha, 5 mM MnCl2, Tris pH 9, 37 °C.

B1: His6-WbpX (Pseudomonas aeruginosa) (protein)
chain: MTRLLVECTYVFEHPKVNSGIQRVVRNVIRELPEADETVECIPVAMLDGTLYQVHSLAPLDPRPHSPLVRLRILVERAANYFWLGQRTLEKRRPFRSSPWARRLLYVACRLFAFAFLSIPLRLLDRILGKQQPAPVRATPLEHRAGDQLVLLDSSWHADFFPLAERLKSEGVGIVSVIYDLIPLTHPQFCDAGLVKVFNHWFDWIAATADGYVAISETIRDEVRAEMLRRIGPEKVAQRWFDYFHLGSELDLVEDGASVEPDLLRMFKAKAPVFLMVSTIEPRKNHGYLLDAFERAWAQGSQARLCIAGRIGWKCEALVERVRQHPELNKRLFMFNDLSDKSLEYAYSHAASLVFPSYVEGFGLPLVEAMQRGLPAMGSDIPVFREIGGEFMAYFDLADPQTLANLVTRFEATGEFPAERPVGEWRWIGWHEASRQLIARILLALGKAPAHGEAVHADCG
Turning to B1, the results for the Michaelis constant (Km) in series [1] and in series [2] were 220 µM and 21 µM, respectively.

Usually Km stands for the substrate concentration at which the rate is half of its maximum.
